Measured values reported in article PMC7614990 (Science (New York, N.Y.), 2021).

B1: SF3B3 (natural protein)
chain: MFLYNLTLQRATGISFAIHGNFSGTKQQEIVVSRGKILELLRPDPNTGKVHTLLTVEVFGVIRSLMAFRLTGGTKDYIVVGSDSGRIVILEYQPSKNMFEKIHQETFGKSGCRRIVPGQFLAVDPKGRAVMISAIEKQKLVYILNRDAAARLTISSPLEAHKANTLVYHVVGVDVGFENPMFACLEMDYEEADNDPTGEAAANTQQTLTFYELDLGLNHVVRKYSEPLEEHGNFLITVPGGSDGPSGVLICSENYITYKNFGDQPDIRCPIPRRRNDLDDPERGMIFVCSATHKTKSMFFFLAQTEQGDIFKITLETDEDMVTEIRLKYFDTVPVAAAMCVLKTGFLFVASEFGNHYLYQIAHLGDDDEEPEFSSAMPLEEGDTFFFQPRPLKNLVLVDELDSLSPILFCQIADLANEDTPQLYVACGRGPRSSLRVLRHGLEVSEMAVSELPGNPNAVWTVRRHIEDEFDAYIIVSFVNATLVLSIGETVEEVTDSGFLGTTPTLSCSLLGDDALVQVYPDGIRHIRADKRVNEWKTPGKKTIVKCAVNQRQVVIALTGGELVYFEMDPSGQLNEYTERKEMSADVVCMSLANVPPGEQRSRFLAVGLVDNTVRIISLDPSDCLQPLSMQALPAQPESLCIVEMGGTEKQDELGERGSIGFLYLNIGLQNGVLLRTVLDPVTGDLSDTRTRYLGSRPVKLFRVRMQGQEAVLAMSSRSWLSYSYQSRFHLTPLSYETLEFASGFASEQCPEGIVAISTNTLRILALEKLGAVFNQVAFPLQYTPRKFVIHPESNNLIIIETDHNAYTEATKAQRKQQMAEEMVEAAGEDERELAAEMAAAFLNENLPESIFGAPKAGNGQWASVIRVMNPIQGNTLDLVQLEQNEAAFSVAVCRFSNTGEDWYVLVGVAKDLILNPRSVAGGFVYTYKLVNNGEKLEFLHKTPVEEVPAAIAPFQGRVLIGVGKLLRVYDLGKKKLLRKCENKHIANYISGIQTIGHRVIVSDVQESFIWVRYKRNENQLIIFADDTYPRWVTTASLLDYDTVAGADKFGNICVVRLPPNTNDEVDEDPTGNKALWDRGLLNGASQKAEVIMNYHVGETVLSLQKTTLIPGGSESLVYTTLSGGIGILVPFTSHEDHDFFQHVEMHLRSEHPPLCGRDHLSFRSYYFPVKNVIDGDLCEQFNSMEPNKQKNVSEELDRTPPEVSKKLEDIRTRYAF
B2: HTATSF1 in the 17S U2 snRNP eluted with 3C protease (natural protein)
chain: SGTNLDGNDEFDEQLRMQELYGDGKDGDTQTDAGGEPDSLGQQPTDTPYEWDLDKKAWFPKITEDFIATYQANYGFSNDGASSSTANVEDVHARTAEEPPQEKAPEPTDARKKGEKRKAESGWFHVEEDRNTNVYVSGLPPDITVDEFIQLMSKFGIIMRDPQTEEFKVKLYKDNQGNLKGDGLCCYLKRESVELALKLLDEDEIRGYKLHVEVAKFQLKGEYDASKKKKKCKDYKKKLSMQQKQLDWRPERRAGPSRMRHERVVIIKNMFHPMDFEDDPLVLNEIREDLRVECSKFGQIRKLLLFDRHPDGVASVSFRDPEEADYCIQTLDGRWFGGRQITAQAWDGTTDYQVEETSREREERLRGWEAFLNAPEANRGLRRSDSVSASERAGPSRARHFSEHPSTSKMNAQETATGMAFEEPIDEKKFEKTEDGGEFEEGASENNAKESSPEKEAEEGCPEKESEEGCPKRGFEGSCSQKESEEGNPVRGSEEDSPKKESKKKTLKNDCEENGLAKESEDDLNKESEEEVGPTKESEEDDSEKESDEDCSEKQSEDGSEREFEENGLEKDLDEEGSEKELHENVLDKELEENDSENSEFEDDGSEKVLDEEGSEREFDEDSDEKEEEEDTYEKVFDDESDEKEDEEYADEKGLEAADKKAEEGDADEKLFEESDDKEDEDADGKEVEDADEKLFEDDDSNEKLFDEEEDSSEKLFDDSDERGTLGGFGSVEEGPLSTGSSFILSSDDDDDDI
B3: SF3B1 (natural protein)
chain: MAKIAKTHEDIEAQIREIQGKKAALDEAQGVGLDSTGYYDQEIYGGSDSRFAGYVTSIAATELEDDDDDYSSSTSLLGQKKPGYHAPVALLNDIPQSTEQYDPFAEHRPPKIADREDEYKKHRRTMIISPERLDPFADGGKTPDPKMNARTYMDVMREQHLTKEEREIRQQLAEKAKAGELKVVNGAAASQPPSKRKRRWDQTADQTPGATPKKLSSWDQAETPGHTPSLRWDETPGRAKGSETPGATPGSKIWDPTPSHTPAGAATPGRGDTPGHATPGHGGATSSARKNRWDETPKTERDTPGHGSGWAETPRTDRGGDSIGETPTPGASKRKSRWDETPASQMGGSTPVLTPGKTPIGTPAMNMATPTPGHIMSMTPEQLQAWRWEREIDERNRPLSDEELDAMFPEGYKVLPPPAGYVPIRTPARKLTATPTPLGGMTGFHMQTEDRTMKSVNDQPSGNLPFLKPDDIQYFDKLLVDVDESTLSPEEQKERKIMKLLLKIKNGTPPMRKAALRQITDKAREFGAGPLFNQILPLLMSPTLEDQERHLLVKVIDRILYKLDDLVRPYVHKILVVIEPLLIDEDYYARVEGREIISNLAKAAGLATMISTMRPDIDNMDEYVRNTTARAFAVVASALGIPSLLPFLKAVCKSKKSWQARHTGIKIVQQIAILMGCAILPHLRSLVEIIEHGLVDEQQKVRTISALAIAALAEAATPYGIESFDSVLKPLWKGIRQHRGKGLAAFLKAIGYLIPLMDAEYANYYTREVMLILIREFQSPDEEMKKIVLKVVKQCCGTDGVEANYIKTEILPPFFKHFWQHRMALDRRNYRQLVDTTVELANKVGAAEIISRIVDDLKDEAEQYRKMVMETIEKIMGNLGAADIDHKLEEQLIDGILYAFQEQTTEDSVMLNGFGTVVNALGKRVKPYLPQICGTVLWRLNNKSAKVRQQAADLISRTAVVMKTCQEEKLMGHLGVVLYEYLGEEYPEVLGSILGALKAIVNVIGMHKMTPPIKDLLPRLTPILKNRHEKVQENCIDLVGRIADRGAEYVSAREWMRICFELLELLKAHKKAIRRATVNTFGYIAKAIGPHDVLATLLNNLKVQERQNRVCTTVAIAIVAETCSPFTVLPALMNEYRVPELNVQNGVLKSLSFLFEYIGEMGKDYIYAVTPLLEDALMDRDLVHRQTASAVVQHMSLGVYGFGCEDSLNHLLNYVWPNVFETSPHVIQAVMGALEGLRVAIGPCRMLQYCLQGLFHPARKVRDVYWKIYNSIYIGSQDALIAHYPRIYNDDKNTYIRYELDYIL

How the values were obtained:
Assay in all cases: cryo-EM structure
[1] = target: B3
[2] = target: PHF5A (human (endogenous in FreeStyle 293-F), UniProt Q7RTV0 1-110)
[3] = target: SF3B6 (human (endogenous in FreeStyle 293-F), UniProt Q9Y3B4 1-125)

Binder	binding result [1]	binding result [2]	binding result [3]
B1	binds	–	–
B2	binds	–	–
B3	–	binds	binds
